In the supplement of paper PMC10567573:

B1: ZNF449 (parent)
chain: QLTGHQRIHSGEEPHKCPECGKRF

Variants of: B1
Test: protein stability index of a GFP-peptide fusion (GPS, HEK-293T) (PSI 1-6); higher = more stable
Settings: c terminus: a fixed tail appended
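Note: lentivirally expressed fusions sorted by FACS into six bins by GFP to DsRed ratio, PSI derived from sequencing read proportions per bin multiplied by bin number.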

Protein stability index: each site, then its substitutions
H5: F 2.94; S 3.41; R 4.03; Q 3.65; E 4.56; K 4.46; P 4.48; G 4.45; N 3.73; V 3.56; W 2.89; D 4.38; T 4.08; L 3.45; I 4.18; Y 2.92; C 4.86; M 3.67; A 3.17
E13: N 3.42; Q 3.63; T 3.39; H 3.62; Y 3.15; K 4.59; F 3.09; W 3.57; I 3.97; M 3.57; G 4.09; R 3.54; A 4.21; L 2.85; C 4.11; P 4.1; D 4.46; V 3.33
Q1: E 3.42; K 3.61; T 4.31; F 2.09; A 4.5; W 2.03; V 3.76; I 3.3; L 3.84; P 3.96; D 3.45; N 4.09; R 3.87; S 4.72; Y 2.71; G 4.83; M 2.5; C 4.74; H 3.69
S10: V 4.09; K 3.87; C 4.11; I 3.6; E 4.48; T 4.35; N 3.85; Q 3.91; L 4.12; H 4.24; Y 3.45; D 4.33; A 4.01; P 4.47; F 4.12; W 4.31; M 3.36; R 3.55
P14: V 4.19; N 4.49; D 4.84; Y 4.65; F 4.38; Q 4.75; E 4.09; M 4.05; G 4.5; I 4.5; K 3.98; H 3.88; A 4.33; S 4.88; L 3.7; C 4.22; W 4.5; R 3.75
P18: W 3.4; Y 3.64; A 3.92; S 4.46; H 3.61; F 3.41; M 4.14; E 4.17; R 4.4; D 5.02; Q 4.02; L 3.92; V 4.55; G 4.21; I 3.88; T 3.98; C 3.74; K 4.15; N 4.3
H15: N 4.52; T 4.52; Q 4.31; F 4.22; A 4.68; E 4.28; P 3.94; L 3.65; V 2.18; K 3.66; M 3.68; S 4.06; R 3.76; C 5.22; Y 4.3; I 4.8
E12: G 3.99; Y 3.41; M 3.73; K 3.43; S 3.96; N 4.21; R 4.01; T 3.43; H 4.05; F 2.54; L 4.05; A 5.14; P 3.48; I 3.63; Q 3.29; W 3.99; D 4.15; V 4.17; C 3.35
T3: P 4.61; S 2.94; Y 3.54; E 4.59; W 2.77; D 4.99; K 3.99; H 4.45; N 2.66; I 2.64; G 3.69; R 3.48; L 3.6; C 4.82; Q 3.66; M 4.15; V 3.12; F 4.01
I8: T 4.42; G 4.59; P 3.71
